Measured values as given in US20070148669.

Tests used:
[1] = biological target: T1, synthetic peptide Ac-SPLAQA-VRSSSR-NH2 (SEQ ID NO: 17) with the P′1 valine substituted by glycine
T1 chain: SPLAQAGRSSSR

[2] = biological target: T2, synthetic peptide Ac-SPLAQA-VRSSSR-NH2 (SEQ ID NO: 17) with the P′1 valine substituted by serine
T2 chain: SPLAQASRSSSR

[3] = biological target: T3, synthetic peptide Ac-SPLAQA-VRSSSR-NH2 (SEQ ID NO: 17) with the P′1 valine substituted by alanine
T3 chain: SPLAQAARSSSR

B1: tumor necrosis factor-alpha converting enzyme (TACE) catalytic domain (protein)
chain: RADPDPMKNTCKLLVVADHRFYRYMGRGEESTTTNYLIELIDRVDDIYRNTAWDNAGFKGYGIQIEQIRILKSPQEVKPGEKHYNMAKSYPNEEKDAWDVKMLLEQFSFDIAEEASKVCLAHLFTYQDFDMGTLGLAYVGSPRANSHGGVCPKAYYSPVGKKNIYLNSGLTSTKNYGKTILTKEADLVTTHELGHNFGAEHDPDGLAECAPNEDQGGKYVMYPIAVSGDHENNKMFSQCSKQSIYKTIESKAQECFQERSNKVGSHHHHHH
- catalytic activity of TACE (product formation quantified at 214 nm after HPLC separation; 100 nM TACE, 100 micromolar substrate) [1]: decreased activity of TACE to non-detectable levels
- catalytic activity of TACE (product formation quantified at 214 nm after HPLC separation; 100 nM TACE, 100 micromolar substrate) [2]: decreased activity of TACE to non-detectable levels
- catalytic activity of TACE (product formation quantified at 214 nm after HPLC separation; 100 nM TACE, 100 micromolar substrate) [3]: decreased activity of TACE to non-detectable levels
